Experimental data published in patent publication US20220169714A1 (published 2022).

T1: recombinant human CXCL1 protein (human, UniProt P09341 35-107)
T1 sequence: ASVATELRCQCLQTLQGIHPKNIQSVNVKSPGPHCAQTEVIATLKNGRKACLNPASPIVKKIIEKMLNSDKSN

T2: mouse CXCL1 (mouse, UniProt P12850 25-96, limits assumed)
T2 sequence (looked up): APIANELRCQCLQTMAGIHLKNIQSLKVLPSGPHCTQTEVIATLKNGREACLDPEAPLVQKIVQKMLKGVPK

T3: rat CXCL1 (rat, UniProt P14095 25-96, limits assumed)
T3 sequence (looked up): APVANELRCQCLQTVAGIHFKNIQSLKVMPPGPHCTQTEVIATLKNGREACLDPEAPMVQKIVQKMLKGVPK


Key:
[1] = target: T1, recombinant human CXCL1 protein; test: apparent affinity-binding constant, in PBS; method not stated (FIG. 1B); in PBS
mouse CXCL1 = target: T2, mouse CXCL1; test: Western blot: recombinant CXCL1 loaded at 10, 20 and 30 ng, probed with HL2401
rat CXCL1 = target: T3, rat CXCL1; test: as above
[2] = target: T1, recombinant human CXCL1 protein; test: apparent affinity-binding constant, in serum 1:4 dilution; method not stated (FIG. 1B); serum, 1:4 dilution
[3] = target: T1, recombinant human CXCL1 protein; test: apparent affinity-binding constant, in serum 1:40 dilution; method not stated (FIG. 1B); serum, 1:40 dilution
[4] = target: T1, recombinant human CXCL1 protein; test: ELISA on coated human CXCL1 against coated BSA, scFv at 10 and 2 ug/mL, anti-Myc HRP, TMB
Procedure: The human CxCL1 protein was coated onto 96-well, 30 ng for well at 4° C. overnight. The plate was blocked by 3% skim milk in PBS 2 h at room temperature. The plate was washed 3 times with PBST and applied anti-human CXCL1 humanized version scFv antibodies at different dilution concentration. The anti-Myc mouse monoclonal antibody with HRP conjugate antibody was applied and developed with TMB solution.

Kd [1] [mg/L]	binding result (mouse CXCL1)	binding result (rat CXCL1)	Kd [2] [mg/L]	Kd [3] [mg/L]	binding result [4]	Binder
0.176	no binding (tested: 30 ng)	no binding (tested: 30 ng)	0.387	0.252		anti-CXCL1 neutralizing monoclonal mouse antibody (HL2401) (antibody, V domains shown, Mouse IgG from hybridoma clone HL2401, purified on protein G; also called CXCL1 mAb (HL2401); CXCL1 monoclonal antibody (HL2401)) VH: EVKLVESGAELVKPGASVKLSCKASGYTFTSYYIYWVKQRPGQGLEWIGEIDPSHGGPTFNEKFKNKATLTVDKSSSTAYMQLSSLTSDDSAVYYCTRESGTGAMDYWGQGTTLTVSS VL: DIVLTQSPASLAVSLGQRATISCKASQSVDYDGDSYVNWYQQKPGQPPKLLIYAASNLESRIPARFSGSGSGTDFTLNILPVEEDDGATYYCQQSSEDPWTFGGGTKLEIKR
					binds	HUM2401-ScFv_1 (humanized version 2) (scFv, Detected through a c-Myc tag; also called HumH2401scFv; Hum HL2401_scFv) scFv: QVQLVESGGGLVQPGGSLRLSCKASGYTFTSYYIYWVRQAPGKGLEWIGEIDPSHGGPTFNEKFKNRFTISRDNSKNTLYLQMNSLRAEDTAVYYCTRESGTGAMDYWGQGTLVTVSSGGGGSGGGGSGGGARGGGGSDIQMTQSPSSLSASVGDRATISCKASQSVDYDGDSYVNWYQQKPGKAPKLLIYAASNLESGIPSRFSGSGSGTDFTLTISSLQPEDFATYYCQQSSEDPWTFGQGTKVEIKR
